The results in this text go back to patent US7431923.

This experiment addresses T1, GST-EC2 (GST fusion of extracellular loop 2 of human CD63, amino acids 108-202) (human, UniProt P08962 108-202).
T1 construct: range 108-202; Expressed in E. coli BL-21; on blots as total bacterial lysate, in BIAcore captured by immobilised anti-GST antibody; Vector-encoded residues between GST and the loop are not described; also called EC2 fusion polypeptide; not shown: glutathione S-transferase as encoded by the bacterial expression vector PGEX-4T-2 (Amersham Biosciences)
T1 sequence (looked up): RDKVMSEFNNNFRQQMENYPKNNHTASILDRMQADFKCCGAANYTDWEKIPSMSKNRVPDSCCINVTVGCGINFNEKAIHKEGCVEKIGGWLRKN
Kind of experiment: BIAcore, steady state; GST-EC2 captured on immobilised anti-GST antibody, antibody injected at 12.5 to 200 nM; KD as reciprocal of KA. On the technique in general: In SPR one partner is held on a chip, and binding of the other changes the refractive index at the surface.

B1: 7BD-33-11A monoclonal antibody (hybridoma ATCC PTA-4890) (antibody, V domains shown)
VH: EVQLQQSGPGLVKPGASVKMSCKASGYTFTSYVMHWVKQMPGQGLEWIGYITPYNDGTKYNEKFKGKATLTSDKSSSTAYMDLSSLTSEDSAVYYCVYGSRYDWYFDVWGAGTTVTVSS
VL: NIMMTQSPSSLAVSAGEKVTMSCKSSQSVLYSSNQKNYLAWYQQKPGQSPKLLIYWASTRESGVPDRFTGSGSGTDFTLTISSVQAEDLAVYYCHQYFSSYTFGGGTKLEIK
Turning to B1, the dissociation constant (Kd) turned out to be 135 nM.

The Kd is a measure of binding affinity in units of concentration.
